{"source": "paper PMC8139589", "about": "“A flexible multiplexed immunosensor for point-of-care in situ wound monitoring”", "key": {"[1]": {"target": "IL-6 (human, UniProt P05231 30-212)", "sequence (P05231 30-212)": "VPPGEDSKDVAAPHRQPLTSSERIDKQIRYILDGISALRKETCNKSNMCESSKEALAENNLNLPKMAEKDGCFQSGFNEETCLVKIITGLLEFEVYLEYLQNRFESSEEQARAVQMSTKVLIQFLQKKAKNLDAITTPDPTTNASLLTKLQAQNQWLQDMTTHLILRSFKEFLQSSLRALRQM", "experiment": "electrochemical aptasensor (SWV); serum; 0-30 ng/ml; Serum as wound-exudate mimic; about 30 min incubation to equilibrium; aptamers immobilized at 10 uM in TE buffer, MCH passivation; assay pH and temperature not", "conditions": "protein: commercial; label: 5' C6 thiol; 3' methylene blue; hairpin"}, "[2]": {"target": "IL-8 (human, UniProt P10145 28-99)", "sequence (P10145 28-99)": "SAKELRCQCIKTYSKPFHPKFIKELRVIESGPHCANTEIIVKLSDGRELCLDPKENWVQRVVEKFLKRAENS", "experiment": "electrochemical aptasensor (SWV); serum; 0-30 ng/ml; Serum as wound-exudate mimic; about 30 min incubation to equilibrium; aptamers immobilized at 10 uM in TE buffer, MCH passivation; assay pH and temperature not", "conditions": "protein: commercial; label: 5' C6 thiol; 3' methylene blue; hairpin"}, "[3]": {"target": "TNF-alpha (human, UniProt P01375 77-233)", "sequence (P01375 77-233)": "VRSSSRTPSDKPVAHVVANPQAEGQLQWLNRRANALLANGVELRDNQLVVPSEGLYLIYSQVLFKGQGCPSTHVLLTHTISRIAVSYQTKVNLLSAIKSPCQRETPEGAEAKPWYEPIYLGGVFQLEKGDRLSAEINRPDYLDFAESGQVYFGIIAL", "experiment": "electrochemical aptasensor (SWV); serum; 0-2 ng/ml; Serum as wound-exudate mimic; about 30 min incubation to equilibrium; aptamers immobilized at 10 uM in TE buffer, MCH passivation; assay pH and temperature not", "conditions": "protein: commercial; chain copies: 3; label: 5' methylene blue; 3' C3 thiol; hairpin"}}, "data": [{"binder": "GGTGGCAGGAGGACTATTTATTTGCTTTTCT (structured_DNA)", "note": "[IL-6 aptamer]", "values": [{"measurement": "binding result", "setting": "[1]", "value": "binds"}]}, {"binder": "GGGGGCUUAUCAUUCCAUUUAGUGUUAUGAUAACC (structured_RNA, none printed (ribo))", "note": "[IL-8 aptamer]", "values": [{"measurement": "binding result", "setting": "[2]", "value": "binds"}]}, {"binder": "GGAGUAUCUGAUGACAAUUCGGAGCUCC (structured_RNA, phosphorothioate at all linkages)", "note": "[TNF-alpha aptamer]", "values": [{"measurement": "binding result", "setting": "[3]", "value": "binds"}]}]}
